{"source": "paper PMC8994553", "about": "“Effects of chameleon dispense-to-plunge speed on particle concentration, complex formation, and final resolution: A case study using the Neisseria gonorrhoeae ribonucleotide reductase inactive complex” (Journal of structural biology, 2021)", "proteins": {"B1": {"name": "Neisseria gonorrhoeae class Ia ribonucleotide reductase NrdB (β) subunit, hydroxyurea-inactivated (met-β2) (enzyme, UniProt A0ACH0F974 1-377, looked up)", "chain": "MSYSTFPKTKNDALKEPMFFGQPVNVARYDQQKYEVFEKLIEKQLSFFWRPEEIDVSRDRIDYANLPEHEKHIFISNLKYQTLLDSIQGRSPNVALLPLVSIPELETWVETWSFSETIHSRSYTHIIRNIVNDPSVVFDDIVENEYITARAEDIACYYDDLIEYTQYYNLLGEGVHNVGGKPVTVSLRGLKKKLYLCLMCVNVLEAIRFYVSFACSFAFAERELMEGNAKIIKLIARDEALHLTGTQHMLNLMRSGVDDPEMAEIAAELQDECFQLFKKAAEQEKEWAAYLFKDGSMIGLNKEILSQYVEYITNLRMQAVGLPAGFEGANQNPIPWINAWLSSDNVQVAPQEVEISSYLIGQIDSEVNTDDLGDFEL", "notes": "N. gonorrhoeae class Ia RNR radical-generating subunit NrdB (β); 377 residues as printed (model holds four residues of the histidine tag, residues 1-346 and 374-376 of 377); expected MW 43253 Da; met-β2: diiron cluster reconstituted (1.8 +/- 0.3 iron per monomer), tyrosyl radical quenched with hydroxyurea; also called NgRNR β; His6-TEV-NgRNR β; source: E. coli T7 Express, pET30a(+), purified …"}}, "biological_target": "the molecule itself", "test": "cryo-EM structure; α and β mixed 1:1.5 (α:β) with 1 mM dATP and 1 mM CDP on ice in 50 mM HEPES pH 7.6, 15 mM MgCl2, 1 mM EDTA; chameleon 54 ms dispense-to-plunge, 6 mg/mL protein (4.3 Å); also Vitrobot grid, 0.5 mg/mL (5.6 Å); dATP-inactivating conditions", "data": [{"protein": "B1", "values": [{"measurement": "binding result", "result": "binds"}]}]}
